From US20200354728

What was measured:
[1] = test system: MmsR (LysR-type transcriptional regulator) (Pseudomonas denitrificans); test: cell_activity; details: GFP reporter; 25 mM 3-HP; 2.6 to 90.2 x10^3 AU/OD
[2] = test system: MmsR (LysR-type transcriptional regulator) (Pseudomonas denitrificans); test: EMSA; details: per monomeric MmsR
[3] = test system: HpdR (LysR-type transcriptional regulator, 304 aa) (Pseudomonas denitrificans); test: cell_activity; details: hpdH mRNA by 3-HP in wild type; 1.20 in hpdR deletion; 60.5 on complementation

| Sequence | Kd ([2]; no 3-HP) [nM] | Kd ([2]; with 3-HP (25 mM)) [nM] | also measured |
| --- | --- | --- | --- |
| CCTCGAATGTGCAAAAACGCAGACCATACTTGCACATCACCGCATTGAGTACATCAAAAATGCACTGTTAGGATCGATCCAGACAACAAAAAAGCCACAGGCTGGGAGAATCCCG (double strand) [BS_wt (PmmsA reporter)] |  |  | activity (fold induction) [1]: 34.6 |
| GTCAGCCTCAGCGCACCTCGAATGTGCAAAAACGCAGACCACTTGCACATCACCGCATTGAGTACATCAAAAATCACTGTTAGGATCGATCCAGACAACAAAAAAGCCACAGGCTGGGAGAATCCCG (double strand) [F12 (PmmsA, intact O1 and O2)] |  |  | Kd ([2]; no 3-HP, 0.4 nM DNA): 10.7 nM; Kd ([2]; with 3-HP (25 mM), 0.4 nM DNA): 5.4 nM |
| GTCAGCCTCAGCGCACCTCGAATGTGCAAAAACGCAGACCATACTTGCACATCACCGCATTGAGTACATCAATCCTTGCTTGTTAGGATCGCGCCCAGGCACAAAAAAGCCACAGGCTGGGAGAATCCCG (double strand) [F12M (O2 mutated)] | 18.6 | 19.8 |  |
| GTCAGCCTCAGCGCACCTCGATCCTTGCTAAACGCAGACCATACCGCCCAGGCACCGCATTGAGTACATCAAAAATGCACTGTTAGGATCGATCCAGACAACAAAAAAGCCACAGGCTGGGAGAATCCCG (double strand) [F1M2 (O1 mutated)] | 79.8 | 316 |  |
| TGTGGGAGCGGGCGTGCCCGCGAAGAGGCCAGCACAGACTTACCACTGTGCTAAAACGCACAGCGGCTGCGCGAAATCTCGTGTTTCCTCCACGAAATTACTCACTAAGATGGATCGGGACAAGAATAATAATCAGGCCCGAGGTTGCAC (double strand) [PhpdH (PC3) promoter] |  |  | activity (fold induction) [3]: 43 |
